# Experimental data reported in PMC11538452.
# Biological target: A9 anti-CD40 antibody, deimmunized variant
# Assay: SPR; wildtype against deimmunized variant on the CD40 protein (Supplementary Fig. 3B); format of this experiment not told in what was shown
# Sequence of human CD40-Fc (P25942 21-193): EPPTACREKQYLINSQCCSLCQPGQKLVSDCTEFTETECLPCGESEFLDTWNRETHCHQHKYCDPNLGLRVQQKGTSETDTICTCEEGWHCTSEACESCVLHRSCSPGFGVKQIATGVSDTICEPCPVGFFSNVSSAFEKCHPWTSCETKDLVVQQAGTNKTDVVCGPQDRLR
substance,measurement,value
human CD40-Fc (from UniProt P25942 21-193) (Fc fusion),Kd,1.6 nM
